Tests used:
hEGFR-Fc-biotin = target: T1, hEGFR-Fc-biotin (human, UniProt P00533 25-645, biotin-labelled with EZ-LINK Sulfo-NHS-LC-Biotin); test: sandwich ELISA with mis-matched antigens
T1 construct: Bought (R&D systems); Detection antigen of the sandwich; not shown: Fc of the bought fusion protein
Description: (§1) The dual-binding activity of the same synthesized IgG BsAbs is assessed using a sandwich ELISA. […] Sandwich ELISAs are developed for detecting the four different BsAb test articles; one for detecting anti-HER-2/anti-EGFR BsAb activity, one for detecting anti-HER-2/anti-LTPR BsAb activity, one for detecting anti-cMET/anti-EGFR BsAb activity and one for detecting anti-cMET/anti-LTPR BsAb activity. For all ELISAs, clear 96-well round bottom high binding Immulon microtiter plates (Greiner bio-one, cat #650061) are coated overnight at 2-8° C. with 50 μL/well 1 μg/mL hHER-2-Fc or 1 μg/mL hHGFR(cMet)-Fc (both from R&D systems) in a 50 mM Na2CO3 pH 8.3 buffer. The plates are washed 4 times with PBST and blocked with 200 μL/well casein buffer (Pierce) for 1 hr at room temperature. The plates are then washed 4 times with PBST and the parental IgG controls or BsAb IgG test articles are added at 50 μL/well and […] and serially diluted 1:3 down the plate. The controls and test articles are incubated on the plate for 1 hr at room temperature. The plates are then washed 4 times with PBST and 50 μL/well 1 μg/mL hEGFR-Fc-biotin or hLTβR-Fc-biotin (both from R&D systems) is added for 1 hr at room temperature. The plates are then washed 4 times with PBST followed by the addition of a 50 μL/well streptavidin-AP (Jackson Immunoresearch Labs Cat. #016-050-084) diluted 1:1000 in casein buffer. The streptavidin-AP is incubated in each well for 1 hr at room temperature. The plates are then washed 4 times with PBST and 100 μL/well 1-step PNPP substrate is added (Thermo Scientific Cat. #37621). After approximately 5-15 minutes, plates are read for Absorbance (405 nm) using a SPECTRAMAX® UV plate reader (Molecular Devices). Biotin-labeling of the hEGFR-Fc and hLTβR-Fc proteins is performed using EZ-LINK™ Sulfo-NHS-LC-Biotin (Thermo Scientific Cat. #21327) according to the manufacturer's protocol.

hHER-2-Fc = target: T2, hHER-2-Fc (human, UniProt P04626 23-652); test: sandwich ELISA with mis-matched antigens
T2 construct: Bought (R&D systems); Coated on the plate; not shown: Fc of the bought fusion protein
Description: as §1

binding result (hEGFR-Fc-biotin) | binding result (hHER-2-Fc) | Binder
no binding | no binding | MetMAb × BHA10 IgG BsAb, CH1/Cκ Wild-Type (AB / H4DR variable domain designs, 7.8.60 CH3, N297Q) (bispecific antibody, Human IgG1; Tested as protein G purified product of four-plasmid co-expression; also called MetMAb × BHA10 Wild-Type) heavy 1: EVQLVESGGGLVQPGGSLRLSCAASGYTFTSYWLHWVRKAPGKGLEWVGMIDPSNSDTRFNPEFKDRFTISADTSKNTAYLQMNSLRAEDTAVYYCATYRSYVTPLDYWGQGTLVTVSSASTKGPSVFPLAPSSKSTSGGTAALGCLVKDYFPEPVTVSWNSGALTSGVHTFPAVLQSSGLYSLSSVVTVPSSSLGTQTYICNVNHKPSNTKVDKKVEPKSCDKTHTCPPCPAPELLGGPSVFLFPPKPKDTLMISRTPEVTCVVVDVSHEDPEVKFNWYVDGVEVHNAKTKPREEQYQSTYRVVSVLTVLHQDWLNGKEYKCKVSNKALPAPIEKTISKAKGQPREPQVYTLPPSREEMTDNQVSLTCLVKGFYPSDIAVEWESNGQPENNYKTTPPVLMSDGSFFLASKLTVDKSRWQQGNVFSCSVMHEALHNHYTQKSLSLSPG light 1: RIQMTQSPSSLSASVGDRVTITCKSSQSLLYTSSQKNYLAWYQDKPGKAPKLLIYWASTRESGVPSRFSGSGSGTDFTLTISSLQPEDFATYYCQQYYAYPWTFGQGTKVEIKRTVAAPSVFIFPPSDEQLKSGTASVVCLLNNFYPREAKVQWKVDNALQSGNSQESVTEQDSKDSTYSLSSTLTLSKADYEKHKVYACEVTHQGLSSPVTKSFNRGEC heavy 2: QVQLVQSGAEVKKPGSSVKVSCKASGYTFTTYYLHWVRYAPGQGLEWMGWIYPGNVHAQYNEKFKGRVTITADKSTSTAYMELSSLRSEDTAVYYCARSWEGFPYWGRGTTVTVSSASTKGPSVFPLAPSSKSTSGGTAALGCLVKDYFPEPVTVSWNSGALTSGVHTFPAVLQSSGLYSLSSVVTVPSSSLGTQTYICNVNHKPSNTKVDKKVEPKSCDKTHTCPPCPAPELLGGPSVFLFPPKPKDTLMISRTPEVTCVVVDVSHEDPEVKFNWYVDGVEVHNAKTKPREEQYQSTYRVVSVLTVLHQDWLNGKEYKCKVSNKALPAPIEKTISKAKGQPRRPRVYTLPPSREEMTKNQVSLVCLVKGFYPSDIAVEWESNGQPENNYKTTPPVLDSDGSFFLYSVLTVDKSRWQQGNVFSCSVMHEALHNHYTQKSLSLSPG light 2: DIQMTQSPSSLSASVGDRVTITCKASQNVGINVAWYQRKPGDAPKSLISSASYRYSGVPSRFSGSGSGTDFTLTISSLQPEDFATYFCQQYDTYPFTFGQGTKVEIKRTVAAPSVFIFPPSDEQLKSGTASVVCLLNNFYPREAKVQWKVDNALQSGNSQESVTEQDSKDSTYSLSSTLTLSKADYEKHKVYACEVTHQGLSSPVTKSFNRGEC
no binding | no binding | MetMAb × BHA10 IgG BsAb, CH1/Cκ design 14.3.1.1 (bispecific antibody, Human IgG1; also called MetMAb × BHA10 14.3.1.1) heavy 1: EVQLVESGGGLVQPGGSLRLSCAASGYTFTSYWLHWVRKAPGKGLEWVGMIDPSNSDTRFNPEFKDRFTISADTSKNTAYLQMNSLRAEDTAVYYCATYRSYVTPLDYWGQGTLVTVSSASTKGPSVFPLAPSSKSTSGGTAALGCLVADYFPEPVTVSWNSGALTSGVHTFPAVLQSSGLYSLASVVTVPSSSLGTQTYICNVNHKPSNTKVDKKVEPKSCDKTHTCPPCPAPELLGGPSVFLFPPKPKDTLMISRTPEVTCVVVDVSHEDPEVKFNWYVDGVEVHNAKTKPREEQYQSTYRVVSVLTVLHQDWLNGKEYKCKVSNKALPAPIEKTISKAKGQPREPQVYTLPPSREEMTDNQVSLTCLVKGFYPSDIAVEWESNGQPENNYKTTPPVLMSDGSFFLASKLTVDKSRWQQGNVFSCSVMHEALHNHYTQKSLSLSPG light 1: RIQMTQSPSSLSASVGDRVTITCKSSQSLLYTSSQKNYLAWYQDKPGKAPKLLIYWASTRESGVPSRFSGSGSGTDFTLTISSLQPEDFATYYCQQYYAYPWTFGQGTKVEIKRTVAAPSVFIFPPSDEQLKSGTARVVCLLNNFYPREAKVQWKVDNALQSGNSQESVTEQDSKDSTYSLISTLTLSKADYEKHKVYACEVTHQGLSSPVTKSFNRGEC heavy 2: QVQLVQSGAEVKKPGSSVKVSCKASGYTFTTYYLHWVRYAPGQGLEWMGWIYPGNVHAQYNEKFKGRVTITADKSTSTAYMELSSLRSEDTAVYYCARSWEGFPYWGRGTTVTVSSASTKGPSVFPLAPSSKSTSGGTAALGCLVKDYFPEPVTVSWNSGALTSGVHTFPAVLQSSGLYSLSSVVTVPSSSLGTQTYICNVNHKPSNTKVDEKVEPKSCDKTHTCPPCPAPELLGGPSVFLFPPKPKDTLMISRTPEVTCVVVDVSHEDPEVKFNWYVDGVEVHNAKTKPREEQYQSTYRVVSVLTVLHQDWLNGKEYKCKVSNKALPAPIEKTISKAKGQPRRPRVYTLPPSREEMTKNQVSLVCLVKGFYPSDIAVEWESNGQPENNYKTTPPVLDSDGSFFLYSVLTVDKSRWQQGNVFSCSVMHEALHNHYTQKSLSLSPG light 2: DIQMTQSPSSLSASVGDRVTITCKASQNVGINVAWYQRKPGDAPKSLISSASYRYSGVPSRFSGSGSGTDFTLTISSLQPEDFATYFCQQYDTYPFTFGQGTKVEIKRTVAAPSVFIFPPSDKQLKSGTASVVCLLNNFYPREAKVQWKVDNALQSGNSQESVTEQDSKDSTYSLSSTLTLSKADYEKHKVYACEVTHQGLSSPVTKSFNRGEC
no binding | no binding | MetMAb × BHA10 IgG BsAb, CH1/Cκ design 14.1.2 (bispecific antibody, Human IgG1; also called MetMAb × BHA10 14.1.2) heavy 1: EVQLVESGGGLVQPGGSLRLSCAASGYTFTSYWLHWVRKAPGKGLEWVGMIDPSNSDTRFNPEFKDRFTISADTSKNTAYLQMNSLRAEDTAVYYCATYRSYVTPLDYWGQGTLVTVSSASTKGPSVFPLAPSSKSTSGGTAALGCLVADYFPEPVTVSWNSGALTSGVHTFPAVLQSSGLYSLSSVVTVPSSSLGTQTYICNVNHKPSNTKVDEKVEPKSCDKTHTCPPCPAPELLGGPSVFLFPPKPKDTLMISRTPEVTCVVVDVSHEDPEVKFNWYVDGVEVHNAKTKPREEQYQSTYRVVSVLTVLHQDWLNGKEYKCKVSNKALPAPIEKTISKAKGQPREPQVYTLPPSREEMTDNQVSLTCLVKGFYPSDIAVEWESNGQPENNYKTTPPVLMSDGSFFLASKLTVDKSRWQQGNVFSCSVMHEALHNHYTQKSLSLSPG light 1: RIQMTQSPSSLSASVGDRVTITCKSSQSLLYTSSQKNYLAWYQDKPGKAPKLLIYWASTRESGVPSRFSGSGSGTDFTLTISSLQPEDFATYYCQQYYAYPWTFGQGTKVEIKRTVAAPSVFIFPPSDKQLKSGTARVVCLLNNFYPREAKVQWKVDNALQSGNSQESVTEQDSKDSTYSLSSTLTLSKADYEKHKVYACEVTHQGLSSPVTKSFNRGEC heavy 2: QVQLVQSGAEVKKPGSSVKVSCKASGYTFTTYYLHWVRYAPGQGLEWMGWIYPGNVHAQYNEKFKGRVTITADKSTSTAYMELSSLRSEDTAVYYCARSWEGFPYWGRGTTVTVSSASTKGPSVFPLAPSSKSTSGGTAALGCLVKDYFPEPVTVSWNSGALTSGVHTFPAVLQSSGLYSLSSVVTVPSSSLGTQTYICNVNHKPSNTKVDKKVEPKSCDKTHTCPPCPAPELLGGPSVFLFPPKPKDTLMISRTPEVTCVVVDVSHEDPEVKFNWYVDGVEVHNAKTKPREEQYQSTYRVVSVLTVLHQDWLNGKEYKCKVSNKALPAPIEKTISKAKGQPRRPRVYTLPPSREEMTKNQVSLVCLVKGFYPSDIAVEWESNGQPENNYKTTPPVLDSDGSFFLYSVLTVDKSRWQQGNVFSCSVMHEALHNHYTQKSLSLSPG light 2: DIQMTQSPSSLSASVGDRVTITCKASQNVGINVAWYQRKPGDAPKSLISSASYRYSGVPSRFSGSGSGTDFTLTISSLQPEDFATYFCQQYDTYPFTFGQGTKVEIKRTVAAPSVFIFPPSDEQLKSGTASVVCLLNNFYPREAKVQWKVDNALQSGNSQESVTEQDSKDSTYSLSSTLTLSKADYEKHKVYACEVTHQGLSSPVTKSFNRGEC

Source: US20240043552A1 (Eli Lilly, published 2024)
